Laboratory results as given in publication PMC10303687 (2023).
One block for each binder: values may come before it.

Legend:
Experiment in all cases: stopped flow koff/kon 10 C
p73_Dr = molecular target: T1, p73_Dr (zebrafish, UniProt A0A8M2BER5)
T1 chain: EGPTFEHLWSTL

p63_Dr = molecular target: T2, p63_Dr (zebrafish, UniProt E9QG65)
T2 chain: GQDVLNQLLEML

p53_Dr = molecular target: T3, p53_Dr (Danio rerio (Zebrafish) (Brachydanio …, UniProt P79734))
T3 chain: DSQEFAELWEKNL

p53_Gg = molecular target: T4, p53_Gg (Gallus gallus (Chicken), UniProt P10360)
T4 chain: EPTEVFMDLWSML

- Kd (p73_Dr): 0.12 µM
- Kd (p63_Dr): 130 µM
- Kd (p53_Dr): 1.9 µM
B1: MDM2_Dr (protein)
chain: SQISKVDNEKLVRPKVQLKSLLEDAGADKDVFTMKEVMFYLGKYIMSKELYDKQQQHIVHCGEDPLGAVLGVKSFSVKEPRALFALINRNLVTVK

- Kd (p53_Gg): 0.09 µM
B2: MDM2_Gg (protein)
chain: SPVSASEQEALVKPKPLLLKLLKLAGAEKDTFTMKEVIFYLGQYIMSKQLYDEKEQHIVHCANDLLGDLFGVTSFSVKEHRRIYSMISRNLIAIN
